Data reported in patent US20100162415A1.

Legend:
Assay in all cases: cell-based or functional assay
[1] = biological target: human VEGF-A (huVEGF165) (human) (UniProt P15692)
[2] = biological target: hum-X VEGF (mouse VEGF-A with 10 residues replaced by the human residues)
[3] = biological target: murine VEGF-A (muVEGF164) (mouse) (UniProt Q00731)
Sequence of UniProt Q00731 (Q00731 other isoform, or with tags, fused parts or gaps): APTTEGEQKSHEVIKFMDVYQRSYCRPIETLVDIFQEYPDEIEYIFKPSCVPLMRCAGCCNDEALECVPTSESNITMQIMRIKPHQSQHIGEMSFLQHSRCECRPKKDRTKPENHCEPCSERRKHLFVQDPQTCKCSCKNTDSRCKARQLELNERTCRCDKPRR

Sequence of UniProt P15692 (P15692 other isoform, or with tags, fused parts or gaps): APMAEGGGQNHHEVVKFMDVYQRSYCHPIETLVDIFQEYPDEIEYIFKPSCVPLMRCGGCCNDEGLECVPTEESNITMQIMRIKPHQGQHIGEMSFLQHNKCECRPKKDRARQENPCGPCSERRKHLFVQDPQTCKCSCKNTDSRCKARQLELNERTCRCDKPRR

Row | Substance | IC50, inhibition of VEGF-stimulated bovine retinal capillary endothelial cell proliferation [1] | IC50, inhibition of VEGF-stimulated bovine retinal capillary endothelial cell proliferation [2] | IC50, inhibition of VEGF-stimulated bovine retinal capillary endothelial cell proliferation [3]
1 | B20-4.1 (antibody) | 0.052 µg/mL | 0.076 µg/mL | 0.5 µg/mL
2 | G6-31 (antibody) | – | 0.0061 µg/mL | –
3 | Y0317 (antibody) | 0.00075 µg/mL | 0.0027 µg/mL | –
